The target of this data set is FGF2 (Homo sapiens) (UniProt P09038). The experiment in a line: cell_activity. The settings on record: 5' C6; 3' idT; negative control; HUVEC proliferation, FGF2 0.58 nM.

A word on the pIC50: it is the negative decadic logarithm of the IC50, by convention in mol/L. Low readings indicate a large IC50, high ones a small IC50.

pIC50: −log10 of the molar value.

Sequence of FGF2 (Homo sapiens) (P09038 135-288): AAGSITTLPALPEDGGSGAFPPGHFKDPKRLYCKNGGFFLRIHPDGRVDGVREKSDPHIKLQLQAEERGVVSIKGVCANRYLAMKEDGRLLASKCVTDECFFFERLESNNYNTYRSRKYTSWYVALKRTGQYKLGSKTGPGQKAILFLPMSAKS

Substance “negative control RNA (Macugen sequence without PEG)” gave a negative-log IC50 (pIC50) below 6.40.

Values taken from patent US20170157165.
